Source: patent US20150125491A1 (AURIGENE DISCOVERY TECHNOLOGIES, published 2015)
Bridges are numbered along the chain shown (N, C = ends). Where no end group is shown, it is not given here. [ ]: non-standard residue; d: D form. Ahx = NCCCCCC(=O)O

B1: Compound 2 (peptide)
peptide: SETSKSF-NH2
modifications: lactam 2-5; N-terminus assumed
SMILES: C[C@@H](O)[C@@H]1NC(=O)[C@@H](NC(=O)[C@@H](N)CO)CCC(=O)NCCCC[C@@H](C(=O)N[C@@H](CO)C(=O)N[C@@H](Cc2ccccc2)C(N)=O)NC(=O)[C@H](CO)NC1=O
B2: Compound 14 (peptide)
peptide: SNTSESFQ
modifications: cyclised between the N-terminal amino group of Ser and the alpha-carboxyl of the C-terminal Glu, which was attached to Rink amide resin through its gamma-carboxyl (gives Gln)
B3: Compound 15 (peptide)
peptide: cyclo(SNTSESF[Ahx]Q)
SMILES: C[C@@H](O)[C@@H]1NC(=O)[C@H](CC(N)=O)NC(=O)[C@H](CO)NC(=O)[C@H](CCC(N)=O)NC(=O)CCCCCNC(=O)[C@H](Cc2ccccc2)NC(=O)[C@H](CO)NC(=O)[C@H](CCC(=O)O)NC(=O)[C@H](CO)NC1=O

The molecules below were run against PD-1 on mouse splenocytes (mouse) (UniProt Q02242) (assay: cell-based or functional assay).
Sequence of PD-1 on mouse splenocytes (mouse) (Q02242 25-288): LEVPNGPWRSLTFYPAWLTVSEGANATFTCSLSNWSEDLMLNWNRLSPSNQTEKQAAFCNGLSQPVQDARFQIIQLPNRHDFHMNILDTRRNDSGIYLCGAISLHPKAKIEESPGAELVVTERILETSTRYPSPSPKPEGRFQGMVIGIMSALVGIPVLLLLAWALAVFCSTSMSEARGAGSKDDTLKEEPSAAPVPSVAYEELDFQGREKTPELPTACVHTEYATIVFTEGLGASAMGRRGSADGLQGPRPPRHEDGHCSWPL

Work on “PD-L1 expressed on MDA-MB-231 cells (from UniProt Q9NZQ7 19-290) (ligand)” yielded a % Splenocyte proliferation (Background proliferation: Splenocytes+anti-CD3/CD28+PDL or Tumor) of 13%.

These molecules were tested against PD-L1 expressed on MDA-MB-231 cells (UniProt Q9NZQ7 19-290, limits assumed) (assay: cell-based or functional assay).
Sequence of PD-L1 expressed on MDA-MB-231 cells (Q9NZQ7 19-290 limits assumed): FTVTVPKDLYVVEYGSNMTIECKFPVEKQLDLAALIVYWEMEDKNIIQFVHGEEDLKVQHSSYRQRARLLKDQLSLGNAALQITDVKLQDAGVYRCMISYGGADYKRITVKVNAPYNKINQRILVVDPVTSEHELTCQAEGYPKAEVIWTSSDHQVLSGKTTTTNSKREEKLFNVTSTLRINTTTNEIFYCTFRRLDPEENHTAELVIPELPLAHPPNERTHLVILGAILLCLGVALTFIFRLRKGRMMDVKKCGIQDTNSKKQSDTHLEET

First: IEMSKVQ-OH (lactam 2-5) [Compound 12]
Second: IETSKSF (not fully specified; also: cyclic, bridge and C-terminus not given here) [Compound 6]
The “% Splenocyte proliferation” value of the first is lower: 39% for the first, 55% for the second.

First: B1
Second: IEMSKSQ (not fully specified; also: cyclic, bridge and C-terminus not given here) [Compound 11]
The “% Splenocyte proliferation” value of the first is higher: 57% for the first, 54% for the second.

Going from B2 to SETSKVF (not fully specified; also: cyclic, bridge and C-terminus not given here) [Compound 7], the “% Splenocyte proliferation” value falls from 55% to 52%.

First: cyclo([Ahx]SETSKSFQ) [Compound 17]
Second: SKTSESF-NH2 (lactam 2-5) [Compound 1]
The “% Splenocyte proliferation” value of the first is lower: 42% for the first, 60% for the second.

SETSKSFE (not fully specified; also: cyclic, bridge and C-terminus not given here) [Compound 20] and EETSKSF (not fully specified; also: cyclic, bridge and C-terminus not given here) [Compound 4] are the same in “% Splenocyte proliferation” value: 36% for the first, 36% for the second.

Compared with SETSKSI (not fully specified; also: cyclic, bridge and C-terminus not given here) [Compound 5], B3 is higher in “% Splenocyte proliferation” value: 42% for the first, 53% for the second.

For SETSKSFQ (not fully specified; also: cyclic, bridge and C-terminus not given here) [Compound 16], the “% Splenocyte proliferation” value was 36%.

First: IEMSKVQ-OH (lactam 2-5) [Compound 12]
Second: IETSKSF (not fully specified; also: cyclic, bridge and C-terminus not given here) [Compound 6]
The Fold induction of the first is lower: 3 fold for the first, 4.2 fold for the second.

Going from B1 to IEMSKSQ (not fully specified; also: cyclic, bridge and C-terminus not given here) [Compound 11], the Fold induction falls from 4.3 fold to 4.2 fold.

Compared with B2, SETSKVF (not fully specified; also: cyclic, bridge and C-terminus not given here) [Compound 7] is lower in Fold induction: 4.2 fold for the first, 4 fold for the second.

First: cyclo([Ahx]SETSKSFQ) [Compound 17]
Second: SKTSESF-NH2 (lactam 2-5) [Compound 1]
The Fold induction of the first is lower: 3.2 fold for the first, 4.6 fold for the second.

SETSKSFE (not fully specified; also: cyclic, bridge and C-terminus not given here) [Compound 20] and EETSKSF (not fully specified; also: cyclic, bridge and C-terminus not given here) [Compound 4] are the same in Fold induction: 2.8 fold for the first, 2.8 fold for the second.

Going from SETSKSI (not fully specified; also: cyclic, bridge and C-terminus not given here) [Compound 5] to B3, the Fold induction rises from 3.2 fold to 4 fold.

Molecule SETSKSFQ (not fully specified; also: cyclic, bridge and C-terminus not given here) [Compound 16] has a Fold induction of 2.8 fold.
